The target of this test is recombinant hACE2-AviTag protein (human) (UniProt Q9BYF1). The experiment in a line: SPR.
UniProt Q9BYF1, sequence (Q9BYF1 18-740): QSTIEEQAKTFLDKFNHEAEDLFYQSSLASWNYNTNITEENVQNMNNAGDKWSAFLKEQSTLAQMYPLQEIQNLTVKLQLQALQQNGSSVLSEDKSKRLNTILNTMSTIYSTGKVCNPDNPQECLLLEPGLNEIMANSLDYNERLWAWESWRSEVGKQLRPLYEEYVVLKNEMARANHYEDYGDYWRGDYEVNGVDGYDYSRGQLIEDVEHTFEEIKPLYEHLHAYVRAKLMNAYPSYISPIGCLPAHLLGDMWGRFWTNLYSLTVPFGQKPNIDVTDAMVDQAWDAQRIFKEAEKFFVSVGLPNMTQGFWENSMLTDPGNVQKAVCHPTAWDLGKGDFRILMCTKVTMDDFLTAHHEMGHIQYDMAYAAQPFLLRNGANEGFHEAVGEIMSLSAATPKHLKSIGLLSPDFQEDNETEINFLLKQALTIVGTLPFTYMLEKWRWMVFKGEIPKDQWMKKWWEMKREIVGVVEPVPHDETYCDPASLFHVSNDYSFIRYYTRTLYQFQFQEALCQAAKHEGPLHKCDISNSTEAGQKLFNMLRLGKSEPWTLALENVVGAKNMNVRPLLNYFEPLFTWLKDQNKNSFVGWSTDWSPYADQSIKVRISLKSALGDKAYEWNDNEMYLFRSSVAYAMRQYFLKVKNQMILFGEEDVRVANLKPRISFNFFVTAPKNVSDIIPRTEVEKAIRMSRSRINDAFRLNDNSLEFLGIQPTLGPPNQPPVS

On to “SARS-CoV-2 spike RBD-MBP fusion protein (domain or fragment)”, for which the Kd turned out to be 19 nM.

Source of the values: PMC8376421.
